Target: factor VIIIa (UniProt P00451)
Sequence (P00451 other isoform, or with tags, fused parts or gaps): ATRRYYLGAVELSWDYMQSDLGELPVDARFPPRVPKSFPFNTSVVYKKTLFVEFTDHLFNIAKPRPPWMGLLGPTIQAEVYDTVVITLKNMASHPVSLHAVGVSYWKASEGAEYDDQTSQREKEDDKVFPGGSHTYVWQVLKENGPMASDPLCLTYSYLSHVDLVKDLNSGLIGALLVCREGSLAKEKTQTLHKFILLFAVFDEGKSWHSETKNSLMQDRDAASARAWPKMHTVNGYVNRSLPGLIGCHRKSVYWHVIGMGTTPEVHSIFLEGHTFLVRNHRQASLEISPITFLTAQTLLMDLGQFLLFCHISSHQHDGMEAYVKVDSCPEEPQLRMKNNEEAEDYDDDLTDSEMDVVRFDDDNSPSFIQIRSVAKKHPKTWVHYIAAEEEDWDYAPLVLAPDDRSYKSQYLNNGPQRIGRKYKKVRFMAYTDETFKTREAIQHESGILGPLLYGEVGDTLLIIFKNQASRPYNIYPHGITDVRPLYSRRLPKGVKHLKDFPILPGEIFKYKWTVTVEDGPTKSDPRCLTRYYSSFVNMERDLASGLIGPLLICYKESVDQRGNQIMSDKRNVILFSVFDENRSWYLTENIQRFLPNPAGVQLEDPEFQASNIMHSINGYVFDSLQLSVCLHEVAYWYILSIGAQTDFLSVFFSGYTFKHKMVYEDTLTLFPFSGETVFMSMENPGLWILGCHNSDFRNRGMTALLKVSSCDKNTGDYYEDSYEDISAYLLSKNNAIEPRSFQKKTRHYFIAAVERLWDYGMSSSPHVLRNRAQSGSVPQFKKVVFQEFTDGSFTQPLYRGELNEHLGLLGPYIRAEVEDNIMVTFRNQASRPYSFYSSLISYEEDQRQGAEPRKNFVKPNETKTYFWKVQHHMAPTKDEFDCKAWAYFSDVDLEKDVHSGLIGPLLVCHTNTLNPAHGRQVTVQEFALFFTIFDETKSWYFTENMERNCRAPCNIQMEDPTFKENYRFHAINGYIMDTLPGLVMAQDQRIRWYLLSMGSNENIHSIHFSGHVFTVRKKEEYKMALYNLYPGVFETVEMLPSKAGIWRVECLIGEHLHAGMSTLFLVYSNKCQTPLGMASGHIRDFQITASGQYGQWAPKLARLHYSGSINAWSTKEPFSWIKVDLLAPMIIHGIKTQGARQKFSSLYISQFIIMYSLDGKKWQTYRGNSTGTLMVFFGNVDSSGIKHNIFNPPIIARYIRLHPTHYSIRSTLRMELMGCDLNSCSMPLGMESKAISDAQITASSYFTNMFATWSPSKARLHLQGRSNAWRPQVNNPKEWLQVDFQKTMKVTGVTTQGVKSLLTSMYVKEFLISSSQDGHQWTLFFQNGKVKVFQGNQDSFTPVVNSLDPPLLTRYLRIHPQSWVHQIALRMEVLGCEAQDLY

IXaPCEGF1
X-activation rate, PL-minus system (14 nM VIIIa, 400 nM X): 2.71 nM/min | X-activation rate, PL-plus system (70 pM VIIIa, 0.5 nM IXa, 15 nM X): NM

IXaR333L
X-activation rate, PL-minus system (14 nM VIIIa, 400 nM X): NM | X-activation rate, PL-plus system (70 pM VIIIa, 0.5 nM IXa, 15 nM X): NM | rate of factor X activation with phospholipid, factor VIIIa increased from 70 pM to 14 nM: IXaP333L ~2.7 nM/min

IXaQ50P
X-activation rate, PL-minus system (14 nM VIIIa, 400 nM X): 2.81 nM/min | X-activation rate, PL-plus system (70 pM VIIIa, 0.5 nM IXa, 15 nM X): NM

IXaR333Q
X-activation rate, PL-minus system (14 nM VIIIa, 400 nM X): NM | X-activation rate, PL-plus system (70 pM VIIIa, 0.5 nM IXa, 15 nM X): NM | rate of factor X activation with phospholipid, factor VIIIa increased from 70 pM to 14 nM: IXaR333Q ~2.4 nM/min

IXaT335A
X-activation rate, PL-minus system (14 nM VIIIa, 400 nM X): 1.83 nM/min | X-activation rate, PL-plus system (70 pM VIIIa, 0.5 nM IXa, 15 nM X): 1.92 nM/min

IXaR338Q
X-activation rate, PL-minus system (14 nM VIIIa, 400 nM X): 2.22 nM/min | X-activation rate, PL-plus system (70 pM VIIIa, 0.5 nM IXa, 15 nM X): 2.53 nM/min

IXaL330I
X-activation rate, PL-minus system (14 nM VIIIa, 400 nM X): 0.94 nM/min | X-activation rate, PL-plus system (70 pM VIIIa, 0.5 nM IXa, 15 nM X): 0.95 nM/min

IXaD332Y
X-activation rate, PL-minus system (14 nM VIIIa, 400 nM X): NM | X-activation rate, PL-plus system (70 pM VIIIa, 0.5 nM IXa, 15 nM X): NM | rate of factor X activation with phospholipid, factor VIIIa increased from 70 pM to 14 nM: IXaD332Y ~4.1 nM/min

IXaL337I
X-activation rate, PL-minus system (14 nM VIIIa, 400 nM X): NM | X-activation rate, PL-plus system (70 pM VIIIa, 0.5 nM IXa, 15 nM X): NM | rate of factor X activation with phospholipid, factor VIIIa increased from 70 pM to 14 nM: IXaL337I ~3.2 nM/min

— patent US20040110688
